Experimental findings from patent US20110206633A1, “POLYMER CONJUGATES OF CD-NP PEPTIDES” (priority 2008, published 2011) are described below.

Data set [1] in a line: Pharmacokinetic study, single IV dose in rats, plasma concentrations, noncompartmental analysis. As to conditions: for AUCINF / CL / Cmax / MRTlast / T½ / Vss: non-released PEG-BNP (or native BNP), equivalent protein mass 0.459 mg/kg IV, Sprague Dawley rats.
Description: (§1) Thirty one (31) adult male Sprague-Dawley rats with indwelling jugular vein and carotid artery catheters (JVC/CAC) (Charles River Labs, Hollister, Calif.) were utilized for this study. […] All animals were food fasted overnight. Prior to dosing, the rats were weighed, the tails and cage cards were labeled for identification and the doses were calculated. Anesthesia was induced and maintained with 3.0-5.0% isoflurane. The JVC and CAC were externalized and flushed with HEP/saline (10 IU/mL HEP/mL saline). The predose sample was collected from the JVC and the catheters were plugged, and labeled to identify the jugular vein and carotid artery. When all of the animals had recovered from anesthesia and the predose samples were processed, the animals were dosed, intravenously (IV) via the JVC using a 1 mL syringe containing the appropriate test article and the dead volume of the catheter was flushed with 0.9% saline to ensure the animals received the correct dose.
(§2) Following a single IV dose, blood samples were collected from groups 1A, 2A, 3A and 4A, at 0 (pre-dose collected as described above), 0.03, 0.33, 2.0, 6.0, 12.0 and 72.0 hours and from Groups 1B, 2B, 3B and 4B at 0 (pre-dose collected as described above), 0.17, 1.0, 4.0, 8.0, 24.0 and 48.0 hours via the carotid artery catheter and processed as stated in the protocol. Following the last collection point, the animals were euthanized.
(§3) Concentrations in plasma that were below LLOQ were replaced with zeros prior to generating Tables and PK analysis. In the event that more than half (>50%) of the data points were below zero, mean concentration will not be shown in the figures or used in PK parameters estimation. The following PK parameters were estimated using plasma concentration-time profile of each animal:
(§4) C0 Extrapolated concentration to time “zero” Cmax Maximum (peak) concentration AUCall Area under the concentration-time from zero to time of last concentration value T1/2(Z) Terminal elimination half-life AUCinf Area under the concentration-time from zero to time infinity Tmax Time to reach maximum or peak concentration following administration CL Total body clearance Vz Volume of distribution based on terminal phase Vss Volume of distribution at steady state MRTlast Mean residence time to last observable concentration
The conditions of data set [2]: rat, in vivo, iv.
Description: as §1, §2, §3, §4

“Also recorded” adds a separate entry of the source.

For `CC[C@H](C)[C@@H]1NC(=O)[C@H](CCCNC(=N)N)NC(=O)[C@H](CC(=O)O)NC(=O)[C@H](CCSC)NC(=O)[C@H](CCCCN)NC(=O)[C@H](CCCNC(=N)N)NC(=O)CNC(=O)[C@H](Cc2ccccc2)NC(=O)[C@@H](NC(=O)CNC(=O)[C@H](CO)NC(=O)CNC(=O)[C@H](CCC(N)=O)NC(=O)[C@@H](NC(=O)[C@H](CCSC)NC(=O)[C@H](CCCCN)NC(=O)[C@@H]2CCCN2C(=O)[C@@H](N)CO)C(C)C)CSSC[C@@H](C(=O)N[C@@H](CCCCN)C(=O)N[C@H](C(=O)N[C@@H](CC(C)C)C(=O)N[C@@H](CCCN=C(N)N)C(=O)N[C@@H](CCCN=C(N)N)C(=O)N[C@@H](Cc2cnc[nH]2)C(=O)O)C(C)C)NC(=O)CNC(=O)[C@H](CC(C)C)NC(=O)CNC(=O)[C@H](CO)NC(=O)[C@H](CO)NC(=O)[C@H](CO)NC(=O)[C@H](CO)NC1=O` [BNP, nesiritide, reference compound], the “measurable BNP in plasma after BNP administration” value in data set [1] (IV, rats, in words) is reported as “No measurable plasma concentrations; also recorded: No BNP was measurable in plasma”.

For the molecule “ButyrALD-10K-BNP: non-releasable mPEG-Butyr-ALD-10K mono-PEG conjugate of BNP-32, N-terminus directed”, in data set [1], the AUCINF turned out to be 96.6 ng·h/mL, the CL turned out to be 79.17 mL/min/kg, the Cmax amounted to 355 ng/mL and the MRTlast was 0.368 h. For the same molecule, in data set [1], the T½ stood at 0.272 h and the Vss stood at 2.27 L/kg.

For the molecule “ButyrALD-40K-BNP: non-releasable 40 kDa mPEG2-Butyr-ALD mono-PEG conjugate of BNP-32, N-terminus directed”, the “peak plasma concentration compared with ButyrALD-10K-BNP” value in data set [2] is “higher peak plasma concentration”. Also, in data set [1] (IV, rats, in words), the “clearance compared with ButyrALD-10K-BNP” value was “lower clearance” and the “half-life compared with ButyrALD-10K-BNP” value is “longer half-life”. In data set [1], the AUCINF is 41300 ng·h/mL, the CL worked out at 0.185 mL/min/kg, the Cmax was 1410 ng/mL and the MRTlast was found to be 24.0 h. In data set [1], the T½ was found to be 26.1 h and the Vss came out at 0.631 L/kg.

As to “C2-FMOC-PEG2-40K-BNP: releasable mono-PEG conjugate of BNP-32 with mPEG2-C2-fmoc-NHS-40K; hydrolysis generates unmodified peptide”, in data set [2] (male, Sprague-Dawley), the “peak concentration of conjugate in plasma” value worked out at 1300 ng/mL. In data set [2], the “time of peak concentration of released BNP” value stood at 0.3 h, the “time plasma conjugate concentrations remained above 100 ng/mL” value is listed as “up to 24 h” and the “time released BNP stayed above 20 ng/mL” value was determined as 8 h. Moreover, in data set [1] (intact C2-FMOC-PEG2-40K-BNP, IV bolus, rats), the “half-life of conjugate in plasma” value came to 15.0 h.
